{
  "source": "the nanobody polyreactivity screen of Harvey et al. (2022)",
  "data": [
    {"assay": "yeast display, Sf9 membrane polyspecificity reagent, FACS + sequencing; frameworks hold sequencing errors", "outline": "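Galactose induction of a Saccharomyces cerevisiae BJ5465 synthetic nanobody display library ran 36–48 hours. The cells were then stained for 1 hour at 4 °C with 10% biotinylated, detergent-solubilized Sf9 membrane reagent, pulled down on streptavidin microbeads and FACS-sorted into low and high (top ~1%) gates on expression and reagent-binding fluorescence. Labels for polyreactivity follow the gate of origin.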", "values": [
      {"sequence": "QVQLVESGGGLVQAGGSLRLSCAASGSTFRGNTMGWYRQAPGKERELVAVISWSDGHTYYADSVKGRFSSSRDYAKNTGYLQMNSLKPEDPAVYYCAAPDPFYDLDSWGQGTQVTVSS", "polyreactivity (PSR sort gate)": "high polyreactivity"},
      {"sequence": "QVQLVESGGGLVQAGGSLRLSCAASGSTFRGYAMGWYRQAPGKERELVAAIRFSGGRTYYADSVKGRFTISRDNAKNTVYLQMNSLKPEDTAVYYCAKDYRPGWTGTDFYYWGQGTQVTVSS", "polyreactivity (PSR sort gate)": "low polyreactivity"},
      {"sequence": "QVQLVESGGGLVQAGGSLRLSCAASGSTFRGYVMGWYRQAPGQERELVAVINSSGGRTYYADSVKGRFTISRDNAKNTVYLQMNSLKPEDTAVYYCAARVLQYSGYYYWGQGTQVTVSS", "polyreactivity (PSR sort gate)": "high polyreactivity"},
      {"sequence": "QVQLVESGGGLVQAGGSLRLSCAASGSTFRHYAMGWYRQAPGKERELVAAISSTGGSTYYADSVKGRFTISRDNAKNTVYLQMNSLKPEDTAVYYCAARRLYWGQGTQVTVSS", "polyreactivity (PSR sort gate)": "high polyreactivity"},
      {"sequence": "QVQLVESGGGLVQAGGSLRLSCAASGSTFRHYAMGWYRQQPGKERELVAAISSRGGSTYYADSVKGRFTISRDNAKNTVYLQMNSLKPEDTAVYYCNVVGYLRPSYRHMDYWGQGTQVTVSS", "polyreactivity (PSR sort gate)": "high polyreactivity"},
      {"sequence": "QVQLVESGGGLVQAGGSLRLSCAASGSTFRIYAMGWYRQQHGKESEFVAAITGGGTHYADSVKGRFTISRDNAKNTVYLQMNRLKPEDTAVYFCAAGYFIRTLSRYRYDYWGQGTQVTVSS", "polyreactivity (PSR sort gate)": "high polyreactivity"},
      {"sequence": "QVQLVESGGGLVQAGGSLRLSCAASGSTFRKYAMGWYRQAPGKERELVATISRGTSTYYADSVKGRFTISRDNAKNTVYLQMNSLKPEDTAVYYCNAGYYNKRDGGYTYNYWGQGTQVTVSS", "polyreactivity (PSR sort gate)": "low polyreactivity"},
      {"sequence": "QVQLVESGGGLVQAGGSLRLSCAASGSTFRNNGMGWYRQAPGKERELVAAITKSGGSTYYADSVKGRFTISRDNAKNTVYLQMNSLKPEDTAVYYCAARFWYNTPRVGWRRYNYWGQGTQVTVSS", "polyreactivity (PSR sort gate)": "high polyreactivity"},
      {"sequence": "QVQLVESGGGLVQAGGSLRLSCAASGSTFRNYAMGWYRQAPGKEREFVAAITWSGGRTYYADSVKGRFTISRDNAKNTVYLQMNSLKPEDTAVYYCAARYRRGYDYWGQGTQVTVSS", "polyreactivity (PSR sort gate)": "high polyreactivity"},
      {"sequence": "QVQLVESGGGLVQAGGSLRLSCAASGSTFRPYAMGWYRQAPGKERELVAAITSTDVNTYYADSVKGRFTISRDNAKNTVYLQMNSLKPEDTAVYYCAAVYLGYYGVSDMEYWGQGTQVTVSS", "polyreactivity (PSR sort gate)": "high polyreactivity"},
      {"sequence": "QVQLVESGGGLVQAGGSLRLSCAASGSTFRPYSMGWYRQAPGKEREFVAAINYRGGSTNYADSVKGRFTISRDNAKNTVYLQMNSLKPEDTAVYYCAATYYLRLRRPYWQGFNYWGQGTQVTVSS", "polyreactivity (PSR sort gate)": "high polyreactivity"},
      {"sequence": "QVQLVESGGGLVQAGGSLRLSCAASGSTFRPYTMGWYRQAPGKERELVAAINRRGSSTYYADSVKGRFTISRDNAKNTVYLQMNSLKPEDTAVYYCNAVPGSRYGTYDYWGQGTQVTVSS", "polyreactivity (PSR sort gate)": "high polyreactivity"},
      {"sequence": "QVQLVESGGGLVQAGGSLRLSCAASGSTFRQNAMGWYRQAPGKERELVAAITYRVASTYYADSVKGRFTISRDNAKNTVYLQMNSLKPEDTAVYYCAARFGSGFNYWGQGTQVTVSS", "polyreactivity (PSR sort gate)": "high polyreactivity"},
      {"sequence": "QVQLVESGGGLVQAGGSLRLSCAASGSTFRQYAMGWYRQAPGKERELVAAISSGGRTNYADSVKGRFTISRDNAKNTVYLQMNSLKPEDTAVYYCAADIRRRVPVRGYYYWGQGTQVTVSS", "polyreactivity (PSR sort gate)": "high polyreactivity"},
      {"sequence": "QVQLVESGGGLVQAGGSLRLSCAASGSTFRRNAMGWYRQAPGKERELLAAISRRGGSTYYADSVKGRFTISRDNAKNTVYLQMNSLKPEDTAVYYCASAVTTYSQGQGVYSWGQGTQVTVSS", "polyreactivity (PSR sort gate)": "high polyreactivity"},
      {"sequence": "QVQLVESGGGLVQAGGSLRLSCAASGSTFRRNAMGWYRQAPGKERELVAAISRSGGSTYYADSVKGRFTISRDNAKNTVYLQMNSLKPEDTAVYYCAADAARTSHWSGDYWGQGTQVTVSS", "polyreactivity (PSR sort gate)": "high polyreactivity"},
      {"sequence": "QVQLVESGGGLVQAGGSLRLSCAASGSTFRRNAMGWYRQAPGKERELVAAISSGGGSTYYADSVKGRFTISRDNAKNTVYLQMNSLKPEVTAVYYCAAGYFGHYVEYYYWGQGTQVTVSS", "polyreactivity (PSR sort gate)": "high polyreactivity"},
      {"sequence": "QVQLVESGGGLVQAGGSLRLSCAASGSTFRRNAMGWYRQAPGKERELVAAITRRGGTYYADSVKGRFTISRDNAKNTVYLQMNSLKPEDTAVYYCAADRSYYDWRYGGFDYWGQGTQVTVSS", "polyreactivity (PSR sort gate)": "high polyreactivity"},
      {"sequence": "QVQLVESGGGLVQAGGSLRLSCAASGSTFRRNAMGWYRQAPGKERELVASITSGGSTYYADSVKGRFTISRDNAKNTVYLQMNSLKPEDTAVYYCAVVWRGGYRWPYEYWGQGTQVTVSS", "polyreactivity (PSR sort gate)": "low polyreactivity"},
      {"sequence": "QVQLVESGGGLVQAGGSLRLSCAASGSTFRRNVMGWSRQAPGKERELVAVISKSGGSTYYADSVKGRFTISRDNAENTVYLQMNSLKPEDTAVYYCAARYLKGYGYWGQGTQVTVSS", "polyreactivity (PSR sort gate)": "high polyreactivity"},
      {"sequence": "QVQLVESGGGLVQAGGSLRLSCAASGSTFRRYAMGWYRQAPGKEREISTSDGSTYYADSVKGRFTISRDNAKNTVYLQMNSLKPEDTAVYYCATEIEYYVGSVPDMGYWGQGTQVTVSS", "polyreactivity (PSR sort gate)": "low polyreactivity"},
      {"sequence": "QVQLVESGGGLVQAGGSLRLSCAASGSTFRRYAMGWYRQAPGKERELVAGISYSGGRTYYADSVKGRFTISRDNAKNTVYLQMNSLKPEDTAVYYCAAKSFPSVRHHENYYWGQVTQVTVSS", "polyreactivity (PSR sort gate)": "high polyreactivity"},
      {"sequence": "QVQLVESGGGLVQAGGSLRLSCAASGSTFRRYVMGWYRQAPGKERELVAAIRWNVGSTYYADSVKGRFTISRDNAKNTVYLQMNSLKPEDTAVYYCAAYEYVRGGYGYWGQGTQVTVSS", "polyreactivity (PSR sort gate)": "high polyreactivity"},
      {"sequence": "QVQLVESGGGLVQAGGSLRLSCAASGSTFRSNAMGWYRQAPGKERELVAAIRYSGGSTYYADSVKGRFTISRDNAKNTVYLQMNSLKQEDTAVYYCATRFRTYYVDHGYWGQGTQVTVSS", "polyreactivity (PSR sort gate)": "high polyreactivity"},
      {"sequence": "QVQLVESGGGLVQAGGSLRLSCAASGSTFRSYAMGWYRQAPGKEREFVAALSSSDDSSYYADSVKGRFTISRDNAKNTVYLQMNSLKPEDTAVYYCAARPWNDGYYVGRFHMDYWGQGTQVTVSS", "polyreactivity (PSR sort gate)": "low polyreactivity"},
      {"sequence": "QVQLVESGGGLVQAGGSLRLSCAASGSTFRSYAMGWYRQSPGNERELVAAISYSGDSTYYADSVKGRFTISSDNAKNTVYLQMNSLKPEDTAVYYCAALRDWDIQCEPWKRYGYWGQGTQVTVSS", "polyreactivity (PSR sort gate)": "low polyreactivity"},
      {"sequence": "QVQLVESGGGLVQAGGSLRLSCAASGSTFRSYTMVWYRQAPGKERELVADINGTGGSTYYADSVKGRFTISRDNAKNTVYLQMNSRKPEDTAVYNCAADGYFRTVTSGWALRMGYWGQGTQVTVSS", "polyreactivity (PSR sort gate)": "high polyreactivity"},
      {"sequence": "QVQLVESGGGLVQAGGSLRLSCAASGSTFRTNGMGWYRQAPGKESELVAAITRGTSTNYADSVKGRFTISRDNAKNTVYLQMNSLKPEDTAVYYCAADGPDRYHYTTTRYRYDYWGQGTQVTVSS", "polyreactivity (PSR sort gate)": "low polyreactivity"},
      {"sequence": "QVQLVESGGGLVQAGGSLRLSCAASGSTFRTNTMGWYRQAPGKERELVADISWSGGSTYYADSVKGRFTISRDNAKNTVYLQMNSLKPEDTAVYYCAKDGAYWTYFSWYDYWGQGTQVTVSS", "polyreactivity (PSR sort gate)": "low polyreactivity"},
      {"sequence": "QVQLVESGGGLVQAGGSLRLSCAASGSTFRTYAMGWYRQAPGKERELVADITWRGGSTYYADSVKGRFTISRDNAKNTVYLQMNSLKPEDTAVYYCATDRGPEVVLYDYWGQGTQVTVSS", "polyreactivity (PSR sort gate)": "low polyreactivity"},
      {"sequence": "QVQLVESGGGLVQAGGSLRLSCAASGSTFRTYAMGWYRQAPGKERELVASIDSTGSTNYADSVKGRFTISRDNAKNTVYLQMNSLKPEDTAVYYCAAETYSYPPFYAYDYWGQGTQVTVSS", "polyreactivity (PSR sort gate)": "low polyreactivity"},
      {"sequence": "QVQLVESGGGLVQAGGSLRLSCAASGSTFRVNAMGWYRQAHGKEREFVAGISFGGGSTYYADSVKGRFTISRDNAKNTVYFQMNSLKPEDTADYYCNARGKGSGAVRYNYWGQGTLVTVSS", "polyreactivity (PSR sort gate)": "high polyreactivity"},
      {"sequence": "QVQLVESGGGLVQAGGSLRLSCAASGSTFRVNAMGWYRQAPGKERELVAAISYRGGSTYYADSVKGRFTISRDNAKNTVYLQMNNLKPEDTAVYYCNADLKRRTYGPDSYYWGQGTQVTVSS", "polyreactivity (PSR sort gate)": "high polyreactivity"},
      {"sequence": "QVQLVESGGGLVQAGGSLRLSCAASGSTFRVNDMGWYRQAPGKESEFVAGISWSGGSTYYADSVKGRFTISRDNAKNTVYLQMNTLKPEETAVYYCAADGYGQGNNRNYNYGGQGTQVTVSS", "polyreactivity (PSR sort gate)": "low polyreactivity"},
      {"sequence": "QVQLVESGGGLVQAGGSLRLSCAASGSTFRVYAMGWYRQAPGKERELVAAISGSGGSTYYADSVKGRFTISRDNAKNTVSLQMNSMKPEDTAVYYCAARSWYTEYYWGQGTQVTVSS", "polyreactivity (PSR sort gate)": "high polyreactivity"},
      {"sequence": "QVQLVESGGGLVQAGGSLRLSCAASGSTFRVYAMGWYRQAPGKERELVAAISRSGSITYYADSVKGRFTISRDNAKNTVYLQMNSLKPEDTAVYYCAARTYSRFTASTYYYWGQGTQVTVSS", "polyreactivity (PSR sort gate)": "high polyreactivity"},
      {"sequence": "QVQLVESGGGLVQAGGSLRLSCAASGSTFRWNTMGWDRQAPGKEREMVAAISYSGGITYYADSVKGRFTISRDNAKNTVYLQMNSLKPEDTAVYYCNLVAYRSYLSSYDYWGQGTQVTVSS", "polyreactivity (PSR sort gate)": "high polyreactivity"},
      {"sequence": "QVQLVESGGGLVQAGGSLRLSCAASGSTFRWYAMGWYRQAPGKERELVAAITSSGSTYYADSVKGRFTISRDNAKNTVYLQMNSLKPEDTAVYYCAARANGYWNTYEHDYWGQGIQVTVSS", "polyreactivity (PSR sort gate)": "low polyreactivity"},
      {"sequence": "QVQLVESGGGLVQAGGSLRLSCAASGSTFRWYTMGWYRQATGKERDLVAAINQSGSRTYYADSVKGRFTISRDNAKNTVYLQMNSLKPEDTAVYYCNAKSYKSPHTYYYWGQGTQVTVSS", "polyreactivity (PSR sort gate)": "high polyreactivity"},
      {"sequence": "QVQLVESGGGLVQAGGSLRLSCAASGSTFRYNAMGWYRQAPGKERELVAAINRGGGTDYADSVKGRFTISRDNAKNTVYLQMNSLKPEDTAVYYCNATTGYGGYNYWGQGTQVTVSS", "polyreactivity (PSR sort gate)": "low polyreactivity"},
      {"sequence": "QVQLVESGGGLVQAGGSLRLSCAASGSTFRYNAMGWYRQAPGKERELVAAITGSGDRTFYADSVKGRFTISRDNAKNTVYLQMNSLKPEDTAVYYCAARSRYPFSYGYYYWGQGTQVTVSS", "polyreactivity (PSR sort gate)": "high polyreactivity"},
      {"sequence": "QVQLVESGGGLVQAGGSLRLSCAASGSTFRYNAMGWYRQAPGKERELVAAITSGGGTNYADSVKGRFTISRDNAKNTVYLQMNSLKPEDTAVYYCAAGAWRGPYSGYYYWGQGTQVTVSS", "polyreactivity (PSR sort gate)": "low polyreactivity"},
      {"sequence": "QVQLVESGGGLVQAGGSLRLSCAASGSTFRYNAMGWYRQAPGKERELVAAITSGGTTNYADSVKGRFTISRDNAKNTVYLQMNSLKPEDTAVYYCAKKRPGFLRYGSIGEFQYDYWGQGTQVTVSS", "polyreactivity (PSR sort gate)": "low polyreactivity"}
    ]}
  ]
}
